Data reported in article PMC3509593, “Role of Key Residues at the Flavin Mononucleotide (FMN):Adenylyltransferase Catalytic Site of the Bifunctional Riboflavin Kinase/Flavin Adenine Dinucleotide (FAD) Synthetase from Corynebacterium ammoniagenes” (International Journal of Molecular Sciences, 2012).
Like-named read-outs stand apart in the source and are kept apart here.

Tests used:
CaFADS [1] = conditions: FADpp activity; 37 °C, 20 mM PIPES, 10 mM MgCl2, pH 7.0
Description: The CaFADS FMNAT and FADpp activities were fluorimetrically measured using a continuous assay. […] Measurements were performed in a Cary Eclipse spectrophotofluorimeter with excitation and emission wavelengths at 420 nm and 530 nm, respectively. FAD and FMN fluorescence were individually calibrated using standard solutions. The rate of FAD formation was calculated from the rate of fluorescence decrease (ΔF/Δt), measured as the tangent to the initial part of the experimental curve by applying the equation:
where ΔF is the decrease in the value of the fluorescence expressed in arbitrary units, Δt is the measurement of reaction time expressed in per minute, and KFMN and KFAD are the FMN and FAD fluorescent rate constants expressed in per micromolar [37]. The kinetic data obtained for one substrate at saturated concentrations of the second one were interpreted using the Michaelis-Menten kinetic model.

CaFADS [2] = conditions: 25 °C; for Kd: 20 mM PIPES pH 7.0
Description: Measurements were carried out using a high precision VP-ITC (MicroCal LLC, Northampton, MA, USA) following the procedure described previously. Typically, 200 μM FAD or FMN and 300 μM ATP solutions were used to titrate ~20 μM CaFADS. Ligand and CaFADS were dissolved in 20 mM PIPES, pH 7.0, at the indicated MgCl2 concentration. Control titrations were performed by injecting ligand into buffer solution. The association constant, the enthalpy change (ΔH) and the stoichiometry, or their average values, were obtained through non-linear regression of the experimental data to a home derived model for one or two independent binding sites implemented in Origin 7.0 (OriginLab Corporation, Northampton, MA, 2002) (see Supplementary Material). The Kd, the free energy change (ΔG), and the entropy change (ΔS) were obtained from basic thermodynamic relationships. Experiments were performed in duplicate or triplicate.
The association constant (Ka), the enthalpy change (ΔH) and the stoichiometry (N), or their average values, were obtained through non-linear regression of the experimental data to a model for one or two independent binding sites implemented in Origin 7.0 (OriginLab Corporation, Northampton, MA, USA, 2002).
The nominal protein concentration was normalised by a factor n (nP0, instead of P0) accounting for either the stoichiometry or the fraction of active (binding-competent) protein.

CaFADS [3] = target: T1, CaFADS (Corynebacterium ammoniagenes, UniProt Q59263); conditions: RFK activity, cited from earlier work
T1 construct: made in house; host or cells: E. coli (pET28a-CaFADS plasmid)

CaFADS [4] = target: T1, CaFADS; parameters: method as in PMID 22892871; conditions: FMNAT activity; 37 °C, 20 mM PIPES, 10 mM MgCl2, pH 7.0; cited from earlier work
[5] = Thermal denaturation by differential scanning calorimetry (DSC); type: physicochemical; conditions: 20 mM PIPES, 10 mM MgCl2, pH 7.0
Description: Thermal stability was determined with a VP-DSC microcalorimeter (MicroCal LLC, Northampton, MA, USA). Protein samples and reference solutions were degassed and carefully loaded into the cells to avoid bubble formation. The baseline of the instrument was routinely recorded before the experiments with both cells filled with buffer. […] Errors in the Tm,app data are within ±0.3–0.5 °C.

[6] = ligand ATP, 10 mM Mg^2+, pH 7.0
[7] = ligand FAD, 10 mM Mg^2+, pH 7.0
[8] = ligand FMN, 10 mM Mg^2+, pH 7.0

B1: WT: wild-type FAD synthetase from Corynebacterium ammoniagenes (CaFADS), over-expressed in E. coli (protein)
chain: MDIWYGTAAVPKDLDNSAVTIGVFDGVHRGHQKLINATVEKAREVGAKAIMVTFDPHPVSVFLPRRAPLGITTLAERFALAESFGIDGVLVIDFTRELSGTSPEKYVEFLLEDTLHASHVVVGANFTFGENAAGTADSLRQICQSRLTVDVIDLLDDEGVRISSTTVREFLSEGDVARANWALGRHFYVTGPVVRGAGRGGKELGFPTANQYFHDTVALPADGVYAGWLTILPTEAPVSGNMEPEVAYAAAISVGTNPTFGDEQRSVESFVLDRDADLYGHDVKVEFVDHVRAMEKFDSVEQLLEVMAKDVQKTRTLLAQDVQAHKMAPETYFLQAES
kcat (CaFADS [1]): 0.217 s⁻¹
ΔG FADS:ATP (CaFADS [2]; ligand ATP, 0 mM Mg^2+, pH 7.0): -7.2 kcal/mol
ΔH FADS:ATP (CaFADS [2]; ligand ATP, 0 mM Mg^2+, pH 7.0): -31 kcal/mol
−TΔS FADS:ATP (CaFADS [2]; ligand ATP, 0 mM Mg^2+, pH 7.0): 24 kcal/mol
ΔG FADS:ATP (CaFADS [2]; [6]): -6.2 kcal/mol
ΔH FADS:ATP (CaFADS [2]; [6]): -30 kcal/mol
−TΔS FADS:ATP (CaFADS [2]; [6]): 23 kcal/mol
ΔG FADS:FAD (CaFADS [2]; [7]): -8.4 kcal/mol
ΔH FADS:FAD (CaFADS [2]; [7]): -26 kcal/mol
−TΔS FADS:FAD (CaFADS [2]; [7]): 18 kcal/mol
ΔG FADS:FMN (CaFADS [2]; [8]): -7.0 kcal/mol
ΔH FADS:FMN (CaFADS [2]; [8]): -35 kcal/mol
−TΔS FADS:FMN (CaFADS [2]; [8]): 28 kcal/mol
Kd (CaFADS [2]; read-out: Kd FADS:ATP (average, Kd,av^ATP:Mg, for two ATP:Mg^2+ binding sites), ligand ATP, 10 mM Mg^2+): 30 µM
Kd (CaFADS [2]; read-out: Kd FADS:ATP, ligand ATP, 0 mM Mg^2+): 5.5 µM
Kd (CaFADS [2]; read-out: Kd FADS:FAD, ligand FAD, 10 mM Mg^2+): 0.7 µM
Kd (CaFADS [2]; read-out: Kd FADS:FMN, ligand FMN, 10 mM Mg^2+): 7.8 µM
kcat (apparent) (CaFADS [3]; saturated ATP, varying RF, 37 °C, 0.8 mM MgCl2, pH 7.0): 5.02 s⁻¹
kcat (apparent) (CaFADS [3]; varying ATP, RF concentration exhibiting ~80% maximal activity): 1.13 s⁻¹
kcat (CaFADS [4]): 0.283 s⁻¹
Tm,app [5]: 42.5 °C
